# Test results taken from patent publication US20250213684A1, “COMBINATION THERAPIES COMPRISING ANTIBODY MOLECULES TO TIM-3” (Novartis AG, priority 2015, published 2025).
# B1: ABTIM3: murine anti-TIM-3 antibody; VH SEQ ID NO: 1, VL SEQ ID NO: 2 (antibody, V domains shown)
# VH: QVQLQQPGAELVKPGASVKMSCKASGYTFTSYNMHWIKQTPGQGLEWIGDIYPGNGDTSYNQKFKGKATLTADKSSSTVYMQLSSLTSEDSAVYYCARVGGAFPMDYWGQGTSVTVSS
# VL: DIVLTQSPASLAVSLGQRATISCRASESVEYYGTSLMQWYQQKPGQPPKLLIYAASNVESGVPARFSGSGSGTDFSLNIHPVEEDDIAIYFCQQSRKDPSTFGGGTKLEIK
# What was measured:
# [1] = system: IL-12 stimulated CD4+ cells; assay: IFN-gamma secretion and proliferation of IL-12 stimulated CD4+ cells; assay type: cell-based; conditions: IL-12 stimulated CD4+ T cells
# Experimental: The ability of four antibodies to enhance IFN-gamma secretion and proliferation of IL-12 stimulated CD4+ cells was assayed. This assay used the observation that a high dose of IL-12 induces expression of TIM-3 and yields an exhausted phenotype in T cells (see Yang et al., J. Clin. Invest. 122:4 p 1271 2012). […] After PMA/ionomycin restimulation and fixation and permeabilization of cells, the resulting IFN-gamma levels were measured by flow cytometry (y axis) and proliferation was measured by CFSE fluorescence (x axis). FIG. 5B quantifies IFN-gamma expression in cells exposed to these four antibodies.
# [2] = system: PD-L1 IgV/TIM-3 mucin construct; assay: Domain analysis: binding to PD-L1 IgV/TIM-3 mucin chimeric construct; conditions: recombinant construct with TIM-3 IgV domain replaced
# Experimental: TIM-3 has an extracellular IgV domain and a mucin domain. […] 3A. […] The dissociation constant (KD) values were calculated for each tested antibody for the recombinant construct are shown in Table 8.
# murine TIM-3 = biological target: T1, murine TIM-3 (Mus musculus, UniProt Q8VIM0); assay: Flow cytometry binding to murine TIM-3 expressed in cells
# T1 construct: expressed in transfected cells
# T1 sequence (Q8VIM0 20-281): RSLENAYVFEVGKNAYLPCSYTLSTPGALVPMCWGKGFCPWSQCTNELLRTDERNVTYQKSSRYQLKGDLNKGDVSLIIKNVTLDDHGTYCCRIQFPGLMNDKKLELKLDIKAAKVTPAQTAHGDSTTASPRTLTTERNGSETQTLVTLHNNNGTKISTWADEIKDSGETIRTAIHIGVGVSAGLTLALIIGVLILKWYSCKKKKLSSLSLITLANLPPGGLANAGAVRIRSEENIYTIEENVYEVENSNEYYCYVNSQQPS
# Source text: (§1) Human TIM-3 has about 23% sequence identity with human TIM-4. Murine TIM-3 has about 66% sequence identity with human TIM-3 and 64% sequence identity with cynomolgus TIM-3.
# [3] = biological target: T2, TIM-3 binding to PtdSer (phosphatidylserine) (Homo sapiens, UniProt Q8TDQ0); assay: Blocking of TIM-3-Ig binding to PtdSer on anti-CD95-treated WR19L(Fas) cells
# T2 construct: huTIM-3 extracellular domain fused to an Ig Fc region
# Experimental: TIM-3 binds to PtdSer (phosphatidylserine), a lipid that is typically present on the surface of apoptotic cells and not normal cells. Anti-CD95-treated WR19L(Fas) cells were cultured under conditions that promote PtdSer accumulation on the cell surface (flipping of PtdSer from the inner membrane to external exposure upon induction of apoptosis). TIM-3-Ig (huTIM-3 extracellular domain fused to an Ig Fc region) was added to the cells, and binding of TIM-3-Ig to the cells was assayed in the presence of various antibodies.
# K562 cells = assay: In vitro cytotoxic activity of purified NK cells against K562 cells; assay type: cell-based; conditions: antibody 10 μg/mL, 4-hour incubation with target cells
# Experimental: 5.1 TIM-3 blockade enhances in vitro cytotoxic activity of purified NK cells TIM-3 is highly expressed endogenously on NK (natural killer) cells; its expression is further induced on activated NK cells. TIM-3 may act to restrain NK cell function, as do other inhibitory receptors. See Ndhlovu et al., Blood 119:3734, 2012, and Silva et al., Cancer Immunol Res 2:410, 2014.
# In this assay. NK cells were purified from whole blood by negative bead selection and then incubated with antibody (10 μg/mL) at 37° C. After 1 hour, target K562 cells were added. After a 4-hour incubation at 37° C., the percent of K562 cell killing was measured.
# human TIM-4 = biological target: T3, human TIM-4 (Homo sapiens, UniProt Q96H15); assay: Flow cytometry binding to human TIM-4 expressed in CHO cells
# T3 construct: expressed in transfected cells; host or cells: CHO cells
# T3 sequence (Q96H15 25-378): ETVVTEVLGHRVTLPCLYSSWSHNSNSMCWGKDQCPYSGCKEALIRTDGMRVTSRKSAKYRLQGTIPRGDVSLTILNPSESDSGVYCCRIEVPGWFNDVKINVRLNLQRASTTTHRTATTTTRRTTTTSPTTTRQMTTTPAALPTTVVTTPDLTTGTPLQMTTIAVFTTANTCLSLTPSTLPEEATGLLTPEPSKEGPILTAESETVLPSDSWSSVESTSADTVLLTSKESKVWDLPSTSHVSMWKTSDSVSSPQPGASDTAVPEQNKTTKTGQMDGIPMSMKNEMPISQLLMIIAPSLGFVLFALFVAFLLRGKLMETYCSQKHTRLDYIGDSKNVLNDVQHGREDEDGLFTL
# Source text: as §1
# cynomolgus TIM-3 = assay: Flow cytometry binding to cells transfected with cynoTIM-3; design: species or system cynomolgus monkey; conditions: overall statement on the binding experiments of Example 1
# Experimental: (§2) Panels of anti-TIM-3 antibodies were assayed for binding to TIM-3 expressing cells.
# human TIM-3 = biological target: T4, human TIM-3 (Homo sapiens, UniProt Q8TDQ0); assay: Flow cytometry binding to cells transfected with human TIM-3; conditions: overall statement on the binding experiments of Example 1
# T4 construct: expressed in transfected cells
# Experimental: as §2
# [4] = system: naïve T cell / dendritic cell co-culture; assay: Proliferation in autologous T-DC co-cultures (CFSE); assay type: cell-based; conditions: 0.01-25 μg/mL, four days, anti-CD3/CD28; vs no antibody and mouse IgG1 control
# Source text: TIM-3 can be expressed on dendritic cells (DCs) and T cells. Naïve T cells and dendritic cells were isolated from donor samples. Naïve T cells and conventional DCs were cocultured for four days in the presence of anti-CD3/CD28. […] Cell proliferation was detected by a CFSE proliferation assay, which relies on dilution of CFSE staining to detect proliferating cells.
molecule,measurement,setting,value
B1,proliferation,[1]; CFSE,enhances
same,IFN-gamma secretion,[1]; flow cytometry,enhances
same,binding to the chimeric protein of FIG. 3A,[2],do not substantially bind
same,cross-reactivity with murine TIM-3,murine TIM-3,not cross-reactive
same,inhibition of binding of TIM-3 to PtdSer,[3],inhibit the binding of TIM-3 to PtdSer
same,percent of K562 cell killing by NK cells,K562 cells,elevated levels of K523 cell killing relative to anti-TIM-3 #2 or the isotype control
same,binding to human TIM-4,human TIM-4,does not bind
same,affinity for cynomolgus TIM-3,cynomolgus TIM-3,sub-nanomolar
same,affinity for human TIM-3,human TIM-3,sub-nanomolar
same,proliferating cells (CFSE-diluted cells),[4],increase in proliferating cells
